Reference: publication PMC6862324

Target: T1, FLAG-tagged human NLRP1 (human), Q9C000
T1 chain: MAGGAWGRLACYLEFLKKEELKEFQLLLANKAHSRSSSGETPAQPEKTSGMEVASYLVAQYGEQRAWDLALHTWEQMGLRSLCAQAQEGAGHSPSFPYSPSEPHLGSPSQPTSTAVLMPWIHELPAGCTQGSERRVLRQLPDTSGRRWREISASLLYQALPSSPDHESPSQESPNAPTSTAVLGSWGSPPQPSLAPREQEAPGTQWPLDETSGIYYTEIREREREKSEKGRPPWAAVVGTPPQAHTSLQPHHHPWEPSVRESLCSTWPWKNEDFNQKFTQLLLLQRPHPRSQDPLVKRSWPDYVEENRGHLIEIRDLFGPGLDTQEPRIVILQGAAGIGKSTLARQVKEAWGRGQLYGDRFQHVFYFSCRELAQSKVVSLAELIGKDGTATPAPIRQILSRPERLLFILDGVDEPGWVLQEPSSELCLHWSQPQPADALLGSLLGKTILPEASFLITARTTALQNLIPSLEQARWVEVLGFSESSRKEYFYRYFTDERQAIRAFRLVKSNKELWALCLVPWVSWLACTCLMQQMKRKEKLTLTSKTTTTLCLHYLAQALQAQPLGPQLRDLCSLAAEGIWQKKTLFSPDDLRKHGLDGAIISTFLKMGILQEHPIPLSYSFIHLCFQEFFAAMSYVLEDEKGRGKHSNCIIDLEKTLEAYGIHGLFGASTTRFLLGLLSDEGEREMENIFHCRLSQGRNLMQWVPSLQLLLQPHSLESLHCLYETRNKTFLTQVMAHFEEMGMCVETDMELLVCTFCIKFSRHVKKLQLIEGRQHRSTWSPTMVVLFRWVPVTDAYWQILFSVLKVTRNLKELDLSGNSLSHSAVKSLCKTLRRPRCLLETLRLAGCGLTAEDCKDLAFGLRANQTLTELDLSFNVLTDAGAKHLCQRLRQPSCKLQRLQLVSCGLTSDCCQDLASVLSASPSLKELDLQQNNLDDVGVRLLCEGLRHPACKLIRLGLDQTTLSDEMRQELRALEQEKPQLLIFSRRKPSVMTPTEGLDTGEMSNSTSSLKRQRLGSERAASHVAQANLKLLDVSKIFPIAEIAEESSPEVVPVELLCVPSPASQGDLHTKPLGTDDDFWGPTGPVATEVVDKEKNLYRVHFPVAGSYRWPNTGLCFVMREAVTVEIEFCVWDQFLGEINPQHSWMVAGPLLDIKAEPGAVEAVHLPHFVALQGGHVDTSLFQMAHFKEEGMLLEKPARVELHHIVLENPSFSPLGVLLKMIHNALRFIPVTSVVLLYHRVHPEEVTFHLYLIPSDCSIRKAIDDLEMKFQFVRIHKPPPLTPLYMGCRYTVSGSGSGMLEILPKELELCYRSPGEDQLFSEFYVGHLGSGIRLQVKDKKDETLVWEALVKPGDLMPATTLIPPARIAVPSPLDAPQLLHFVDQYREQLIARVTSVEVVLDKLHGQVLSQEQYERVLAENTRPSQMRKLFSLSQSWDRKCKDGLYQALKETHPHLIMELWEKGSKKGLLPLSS
Test: co-IP
Conditions: remark: other sources report otherwise

fold reduction of binding with VbP (10 uM, in the lysate) against DMSO: 2 fold
B1: endogenous DPP9, Q86TI2 1-863 (enzyme)
chain: MATTGTPTADRGDAAATDDPAARFQVQKHSWDGLRSIIHGSRKYSGLIVNKAPHDFQFVQKTDESGPHSHRLYYLGMPYGSRENSLLYSEIPKKVRKEALLLLSWKQMLDHFQATPHHGVYSREEELLRERKRLGVFGITSYDFHSESGLFLFQASNSLFHCRDGGKNGFMVSPMKPLEIKTQCSGPRMDPKICPADPAFFSFINNSDLWVANIETGEERRLTFCHQGLSNVLDDPKSAGVATFVIQEEFDRFTGYWWCPTASWEGSEGLKTLRILYEEVDESEVEVIHVPSPALEERKTDSYRYPRTGSKNPKIALKLAEFQTDSQGKIVSTQEKELVQPFSSLFPKVEYIARAGWTRDGKYAWAMFLDRPQQWLQLVLLPPALFIPSTENEEQRLASARAVPRNVQPYVVYEEVTNVWINVHDIFYPFPQSEGEDELCFLRANECKTGFCHLYKVTAVLKSQGYDWSEPFSPGEDEFKCPIKEEIALTSGEWEVLARHGSKIWVNEETKLVYFQGTKDTPLEHHLYVVSYEAAGEIVRLTTPGFSHSCSMSQNFDMFVSHYSSVSTPPCVHVYKLSGPDDDPLHKQPRFWASMMEAASCPPDYVPPEIFHFHTRSDVRLYGMIYKPHALQPGKKHPTVLFVYGGPQVQLVNNSFKGIKYLRLNTLASLGYAVVVIDGRGSCQRGLRFEGALKNQMGQVEIEDQVEGLQFVAEKYGFIDLSRVAIHGWSYGGFLSLMGLIHKPQVFKVAIAGAPVTVWMAYDTGYTERYMDVPENNQHGYEAGSVALHVEKLPNEPNRLLILHGFLDENVHFFHTNFLVSQLIRAGKPYQLQIYPNERHSIRCPESGEHYEVTLLHFLQEYL
